The results in this text go back to PMC7307139.

The target in this assay is T1, vesicular stomatitis virus (VSV) phosphoprotein (P), wild type (vesicular stomatitis virus (VSV)), P03520.
T1 chain: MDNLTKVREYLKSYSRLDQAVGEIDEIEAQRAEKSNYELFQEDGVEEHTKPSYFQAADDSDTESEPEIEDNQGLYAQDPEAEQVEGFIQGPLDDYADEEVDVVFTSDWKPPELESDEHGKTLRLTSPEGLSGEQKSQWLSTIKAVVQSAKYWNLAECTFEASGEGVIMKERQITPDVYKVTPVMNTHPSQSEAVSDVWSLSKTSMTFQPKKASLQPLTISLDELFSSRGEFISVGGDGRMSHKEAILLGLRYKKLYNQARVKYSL
Briefly: SEC-MALS. The note with it: remark: other sources report otherwise.

B1: vesicular stomatitis virus (VSV) phosphoprotein (P), wild type, P03520 1-265 (natural protein)
chain: MDNLTKVREYLKSYSRLDQAVGEIDEIEAQRAEKSNYELFQEDGVEEHTKPSYFQAADDSDTESEPEIEDNQGLYAQDPEAEQVEGFIQGPLDDYADEEVDVVFTSDWKPPELESDEHGKTLRLTSPEGLSGEQKSQWLSTIKAVVQSAKYWNLAECTFEASGEGVIMKERQITPDVYKVTPVMNTHPSQSEAVSDVWSLSKTSMTFQPKKASLQPLTISLDELFSSRGEFISVGGDGRMSHKEAILLGLRYKKLYNQARVKYSL
As to B1, the stoichiometry N (commonly the number of molecules, sites or subunits per partner or assembly) was 2.
